The koff is a measure of how fast the partners let go of each other.

This note sets out measurements from patent EP2778173A1 (dated 2014).

The target in this experiment is T1, recombinant EF produced in our laboratory (Bacillus anthracis, UniProt P40136 34-800).
T1 sequence: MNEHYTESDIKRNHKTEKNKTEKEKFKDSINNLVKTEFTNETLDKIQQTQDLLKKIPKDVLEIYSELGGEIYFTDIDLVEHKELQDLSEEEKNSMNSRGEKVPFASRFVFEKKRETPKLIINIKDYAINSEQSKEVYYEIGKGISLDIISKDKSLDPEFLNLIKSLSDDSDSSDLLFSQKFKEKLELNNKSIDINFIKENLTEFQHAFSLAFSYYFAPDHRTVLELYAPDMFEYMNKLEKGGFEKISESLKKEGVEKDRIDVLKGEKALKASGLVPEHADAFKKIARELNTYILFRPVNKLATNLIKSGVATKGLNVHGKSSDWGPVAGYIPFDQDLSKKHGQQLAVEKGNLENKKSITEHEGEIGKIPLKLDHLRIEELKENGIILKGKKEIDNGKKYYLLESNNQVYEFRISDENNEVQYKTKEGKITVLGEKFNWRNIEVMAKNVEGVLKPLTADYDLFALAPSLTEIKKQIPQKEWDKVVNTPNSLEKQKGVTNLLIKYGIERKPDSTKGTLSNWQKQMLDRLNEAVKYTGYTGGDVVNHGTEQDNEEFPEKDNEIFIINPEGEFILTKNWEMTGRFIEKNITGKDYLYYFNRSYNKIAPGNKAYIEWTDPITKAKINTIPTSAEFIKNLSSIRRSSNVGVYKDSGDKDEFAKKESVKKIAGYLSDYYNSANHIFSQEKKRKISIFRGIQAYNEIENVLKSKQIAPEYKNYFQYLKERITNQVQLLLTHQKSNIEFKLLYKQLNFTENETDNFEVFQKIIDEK
Description: SPR (Biacore X), scFv 2LF on CM5 chip, Native EF in solution; Table 2. A general note: Surface plasmon resonance follows binding to a sensor surface in real time, without labels.

B1: scFv 2LF (scFv, V domains shown)
VH: QVQLVESGGGVVQPGRSLRLSCAASGFAFDSTAMHWVRQAPGKGLEWVAVISTGGSTYYADSVKGRFTISRDNSNNTLYLQMNSLRAEDTAVYYCAKAVRGYIGSRGPLDVWGQGTMVTVSS
VL: DIQMTQSPSSVSASVGDRVTITCRASQGISSWLAWYQQKPGKAPKLLIYKASSLQSGVPSRFSGSGSGTDFTLTISSLQPEDFATYYCQQYSTSPITFGGGTKVEIK
Regarding B1, the koff was determined as 0.00051 s⁻¹.
